Test results taken from the supplement of paper PMC10567573.

B1: FEM1A (parent)
chain: PCCSSSPEEPLNGESYESCCPTSR

Variants of: B1
Assay: protein stability index of a GFP-peptide fusion (GPS, HEK-293T) (PSI 1-6); higher = more stable
Conditions: c terminus: a fixed tail appended
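Further: lentivirally expressed fusions sorted by FACS into six bins by GFP to DsRed ratio, PSI derived from sequencing read proportions per bin multiplied by bin number.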

In order of falling protein stability index:
1. S23D  5
2. P21D  5
3. S18A  4.71
4. Y16E  4.69
5. T22D  4.61
6. Y16P  4.61
7. S15D  4.61
8. Y16H  4.59
9. Y16D  4.57
10. Y16Q  4.55
11. C19E  4.54
12. T22E  4.53
13. C19D  4.5
14. S23E  4.42
15. T22C  4.41
16. Y16T  4.37
17. S23A  4.35
18. Y16V  4.35
19. C20N  4.35
20. Y16C  4.27
21. C19K  4.25
22. S18C  4.24
23. C20E  4.24
24. S18D  4.23
25. T22Q  4.21
26. S23C  4.2
27. P21E  4.19
28. S18T  4.19
29. P21Q  4.17
30. S15P  4.14
31. C20S  4.14
32. P21R  4.13
33. E17C  4.12
34. C20D  4.12
35. C19S  4.11
36. C19Q  4.09
37. C19P  4.08
38. C20R  4.08
39. T22S  4.04
40. S18Q  4.02
41. S18E  4
42. S18P  4
43. T22A  3.99
44. S15A  3.98
45. C19R  3.97
46. Y16N  3.97
47. Y16F  3.97
48. C19A  3.94
49. S15H  3.92
50. P21C  3.92
51. C20T  3.91
52. T22N  3.9
53. Y16G  3.9
54. C19V  3.89
55. S15G  3.88
56. Y16L  3.84
57. Y16M  3.83
58. E17D  3.81
59. S15V  3.81
60. P21N  3.81
61. P21K  3.81
62. T22K  3.79
63. T22W  3.78
64. P21G  3.78
65. C19F  3.76
66. P21T  3.76
67. S23G  3.75
68. S18H  3.74
69. Y16I  3.73
70. C19I  3.72
71. C19Y  3.72
72. P21H  3.71
73. Y16S  3.7
74. E17P  3.7
75. C20L  3.7
76. C20W  3.69
77. Y16K  3.68
78. S15K  3.68
79. P21A  3.68
80. S18N  3.68
81. C19N  3.67
82. T22L  3.66
83. E14N  3.66
84. S15I  3.66
85. S18K  3.64
86. E14R  3.62
87. S15N  3.62
88. C19G  3.61
89. S15E  3.61
90. S23H  3.6
91. C19H  3.57
92. C19T  3.56
93. E17T  3.56
94. Y16A  3.55
95. E17F  3.55
96. C20I  3.54
97. C20Q  3.54
98. S23I  3.53
99. T22G  3.53
100. C20A  3.53
101. S15Q  3.52
102. S15R  3.51
103. P21L  3.51
104. T22Y  3.5
105. C19M  3.49
106. S15C  3.47
107. C20V  3.47
108. T22M  3.45
109. S18V  3.45
110. E17M  3.44
111. E17H  3.44
112. E17G  3.43
113. E14P  3.41
114. T22I  3.38
115. C20Y  3.38
116. T22H  3.37
117. E17N  3.37
118. T22F  3.36
119. T22V  3.35
120. Y16R  3.35
121. E14Q  3.33
122. C20H  3.32
123. C20K  3.31
124. C19L  3.28
125. E17K  3.25
126. C20G  3.25
127. S23F  3.22
128. Y16W  3.2
129. C20M  3.18
130. S15Y  3.17
131. E14S  3.14
132. T22P  3.13
133. S15M  3.12
134. S18R  3.11
135. P21V  3.1
136. T22R  3.09
137. P21S  3.09
138. S15L  3.07
139. S18Y  3.07
140. S18M  3.06
141. C20P  3.06
142. E17A  3.04
143. P21F  3.04
144. S18I  3.03
145. P21Y  3.01
146. S18L  3.01
147. E14T  2.94
148. C20F  2.91
149. S18F  2.89
150. E17V  2.87
151. S15W  2.85
152. E17I  2.83
153. E14V  2.8
154. S15T  2.69
155. E17R  2.67
156. S15F  2.63
157. P21W  2.62
158. P21I  2.6
159. E14W  2.57
160. E17Y  2.52
161. E17S  2.51
162. S18W  2.5
163. E14Y  2.41
164. E17L  2.37
165. P21M  2.28
166. C19W  1.98
167. E17W  1.72
